# According to patent publication US20190241671A1 (Merck KGaA, published 2019):
# Where a chain is given by its changes, count along the chain named.
# T1: CD19 antigen on Daudi lymphoma cells (human, UniProt P15391 20-556)
# T1 construct: whole, on cells; also called Daudi cells
# T1 sequence (looked up): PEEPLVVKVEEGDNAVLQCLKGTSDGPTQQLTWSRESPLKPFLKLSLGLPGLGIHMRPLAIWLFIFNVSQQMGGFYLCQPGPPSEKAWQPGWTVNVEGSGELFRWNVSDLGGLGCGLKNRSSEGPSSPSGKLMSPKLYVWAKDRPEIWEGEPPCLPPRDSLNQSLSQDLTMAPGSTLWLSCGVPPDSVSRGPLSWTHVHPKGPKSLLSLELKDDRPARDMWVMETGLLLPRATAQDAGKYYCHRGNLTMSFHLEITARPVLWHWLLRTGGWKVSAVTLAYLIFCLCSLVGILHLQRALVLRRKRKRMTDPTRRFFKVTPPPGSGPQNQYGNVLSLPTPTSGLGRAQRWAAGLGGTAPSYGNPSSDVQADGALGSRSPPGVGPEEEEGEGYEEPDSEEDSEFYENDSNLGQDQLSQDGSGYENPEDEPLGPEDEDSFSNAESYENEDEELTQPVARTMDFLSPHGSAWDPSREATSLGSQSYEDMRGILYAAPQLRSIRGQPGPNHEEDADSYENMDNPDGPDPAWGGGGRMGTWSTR
# B1: B4 VHv1/VKv1 antibody (antibody, V domains shown)
# VH: QVQLQQPGAEVVKPGASVRLSCETSGYTFTSNWMHWVKQRPDQGLEWIGEIDPSDSYTNYNQKFKGKAELTVDKSSSTAYMEVSDLTSEDSAVYYCARGSNPYYYAMDYWGQGTSVTVSS
# VL: QIALTQEPAIMSASPGEKVTMTCSASSGVNYMHWYQQKPGTSPKRWIYDTSKLDSGVPARFSGSGSGTSYSLTISSMEAEDAATYYCHQRGSYTFGGGTKLEIK
# B2: B4 VHv1/VKv2 antibody (antibody, V domains shown)
# VH: B1 VH
# VL: B1 VL with Q1D, A3V, E7S, I10T, M11L
# B3: B4 VHv2/VKv1 antibody (antibody, V domains shown)
# VH: B1 VH with E23K, D42G
# VL: B1 VL
# B4: B4 VHv3/VKv3 antibody (antibody, V domains shown)
# VH: B1 VH with Q5E, V12K, R19K, L20V, E23K, T24A, D42G, E69K, S88A
# VL: B1 VL with A3V, E7S, I10T, M11L, V19A, V29A, D54A, S75E
# B5: B4 VH0/VK0 antibody (antibody, V domains shown)
# VH: B1 VH with E23K, D42G, E69K, D85S
# VL: B1 VL with A3V, E7S, D54A
# notes: Expressed from pdHL12 as intact heavy and light chains; also called parental B4 antibody
# B6: B4 VHv4/VKv3 antibody (antibody, V domains shown)
# VH: QVQLEQPGAEVVKPGASVKVSCKTSGYTFTSNWMHWVKQTPGKGLEWIGEIDPSDSYTNYNQKFDGKAKLTVDKSSSTAYMEVSDLTAEDSATYYCARGSNPYYYAMDYWGQGTSVTVSS
# VL: B1 VL with A3V, E7S, I10T, M11L, V19A, V29A, D54A, S75E
# B7: B4 VHv4/VKv4 antibody (antibody, V domains shown)
# VH: B6 VH
# VL: B1 VL with A3V, E7S, I10T, M11L, V19A, S51D, L53T, D54A
# B8: B4 VHv3/VKv4 antibody (antibody, V domains shown)
# VH: B6 VH with V12K, T24A, T40R, K43Q, D65K, T93V
# VL: B1 VL with A3V, E7S, I10T, M11L, V19A, S51D, L53T, D54A
# B9: B4 VHv2/VKv2 antibody (antibody, V domains shown)
# VH: B1 VH with E23K, D42G
# VL: B1 VL with Q1D, A3V, E7S, I10T, M11L
# B10: B4 VHv6/VKv4 antibody (antibody, V domains shown)
# VH: B6 VH with T40R, K43Q, A88S
# VL: B1 VL with A3V, E7S, I10T, M11L, V19A, S51D, L53T, D54A
# notes: also called 10
# B11: B4 VHv5/VKv4 antibody (antibody, V domains shown)
# VH: B6 VH with V12K, T24A, K38R, T40A, A88S
# VL: B1 VL with A3V, E7S, I10T, M11L, V19A, S51D, L53T, D54A
# Target: T1, CD19 antigen on Daudi lymphoma cells
# Assay: FACS competition on Daudi cells; unlabeled antibody 100 ng/ml (1x) vs competitor biotin-B4 VH0/VK0 100 ng/ml
# Experimental: (§1) Briefly, a titration series was prepared of biotin-labeled B4 VH0/VK0 antibody pre-mixed at a final concentration of 100 ng/ml with one of the unlabeled, experimental B4 VHvx/VKvy antibodies at 800 ng/ml, 400 ng/ml, 200 ng/ml, 100 ng/ml, and 50 ng/ml in a PBS/2% serum buffer. As a control, the biotin-labeled antibody was pre-mixed with unlabeled B4 VH0/VK0 antibody at the same concentrations as above (inhibition control) or with buffer only (positive binding control). The combined antibodies were added to Daudi cells for 30 minutes at 4° C. A 1:200 dilution of FITC-labeled streptavidin was added to the cells and the samples were incubated for a further 30 minutes at 4° C. Bound amount of labeled B4 VH0/VK0 antibody was quantitated by FACS analysis, and the results were expressed as “percent inhibition,” relative to the positive binding control. The tested antibodies were B4 VH0/VK0 (C), B4 VHv1/VKv1 (1), B4 VHv2/VKv1 (2), B4 VHv1/VKv2 (3), B4 VHv2/VKv2 (4), B4 VHv3/VKv3 (5), B4 VHv4/VKv3 (6), B4 VHv3/VKv4 (7), B4 VHv4/VKv4 (8), B4 VHv5/VKv4 (9), and B4 VHv6/VKv4 (10).
row,% inhibition of labeled B4 binding,Binder
1,16%,B1
2,20%,B2
3,16%,B3
4,20%,B4
5,28%,B5
6,16%,B6
7,16%,B7
8,20%,B8
9,16%,B9

# Target: T1, CD19 antigen on Daudi lymphoma cells
# Assay: as above
# Remark: another data set of the same source
# Experimental: as §1
row,% inhibition of labeled B4 binding,Binder
1,60%,B10
2,67%,B5
3,57%,B11

# Target: T1, CD19 antigen on Daudi lymphoma cells
# Assay: FACS competition on Daudi cells; unlabeled antibody 400 ng/ml (4x) vs competitor biotin-B4 VH0/VK0 100 ng/ml
# Experimental: as §1
row,% inhibition of labeled B4 binding,Binder
1,80%,B10
2,90%,B5
3,87%,B11

# Target: T1, CD19 antigen on Daudi lymphoma cells
# Assay: FACS competition on Daudi cells; unlabeled antibody 50 ng/ml (0.5x) vs competitor biotin-B4 VH0/VK0 100 ng/ml
# Experimental: as §1
row,% inhibition of labeled B4 binding,Binder
1,53%,B10
2,50%,B5
3,47%,B11

# Target: T1, CD19 antigen on Daudi lymphoma cells
# Assay: FACS competition on Daudi cells; unlabeled antibody 800 ng/ml (8x) vs competitor biotin-B4 VH0/VK0 100 ng/ml
# Experimental: as §1
row,% inhibition of labeled B4 binding,Binder
1,56%,B1
2,56%,B2
3,56%,B3
4,60%,B4
5,68%,B5
6,56%,B6
7,60%,B7
8,60%,B8
9,56%,B9

# Target: T1, CD19 antigen on Daudi lymphoma cells
# Assay: FACS competition on Daudi cells; unlabeled antibody 200 ng/ml (2x) vs competitor biotin-B4 VH0/VK0 100 ng/ml
# Experimental: as §1
row,% inhibition of labeled B4 binding,Binder
1,28%,B1
2,32%,B2
3,28%,B3
4,36%,B4
5,44%,B5
6,32%,B6
7,32%,B7
8,36%,B8
9,32%,B9

# Target: T1, CD19 antigen on Daudi lymphoma cells
# Assay: FACS competition on Daudi cells; unlabeled antibody 800 ng/ml (8x) vs competitor biotin-B4 VH0/VK0 100 ng/ml
# Remark: another data set of the same source
# Experimental: as §1
row,% inhibition of labeled B4 binding,Binder
1,87%,B10
2,93%,B5
3,90%,B11

# Target: T1, CD19 antigen on Daudi lymphoma cells
# Assay: FACS competition on Daudi cells; unlabeled antibody 400 ng/ml (4x) vs competitor biotin-B4 VH0/VK0 100 ng/ml
# Remark: another data set of the same source
# Experimental: as §1
row,% inhibition of labeled B4 binding,Binder
1,44%,B1
2,44%,B2
3,40%,B3
4,40%,B4
5,56%,B5
6,44%,B6
7,48%,B7
8,52%,B8
9,44%,B9

# Target: T1, CD19 antigen on Daudi lymphoma cells
# Assay: FACS competition on Daudi cells; unlabeled antibody 200 ng/ml (2x) vs competitor biotin-B4 VH0/VK0 100 ng/ml
# Remark: another data set of the same source
# Experimental: as §1
row,% inhibition of labeled B4 binding,Binder
1,70%,B10
2,83%,B5
3,70%,B11

# Target: T1, CD19 antigen on Daudi lymphoma cells
# Assay: FACS competition on Daudi cells; unlabeled antibody 50 ng/ml (0.5x) vs competitor biotin-B4 VH0/VK0 100 ng/ml
# Remark: another data set of the same source
# Experimental: as §1
row,% inhibition of labeled B4 binding,Binder
1,12%,B1
2,12%,B2
3,8%,B3
4,12%,B4
5,16%,B5
6,12%,B6
7,12%,B7
8,12%,B8
9,8%,B9
